Assay results reported in US20130273143A1 (UNIVERSITY OF CINCINNATI, published 2013).

Target: T1, Bcl-2 (mouse, UniProt P10417 1-236)
T1 construct: Endogenous protein from wild-type mouse heart homogenate
Experiment: co-immunoprecipitation from WT mouse heart homogenate with anti-Hsp20 antibody, immunoblot with anti-Bcl-2
From the text: Mouse heart homogenates are immunoprecipitated with anti-Hsp20 (d) or anti-Bax antibodies (e). Proteins are separated on SDS-PAGE gels and probed with anti-Bax (d1) or anti-Hsp20 antibodies (e1). Then, membrane (d1) is stripped and re-probed with anti-Bcl-2(d2); subsequently, this membrane (d2) is re-stripped and re-probed with anti-Hsp20 (d3). Similarly, membrane (e1) is stripped and re-probed with anti-Bax antibodies (e2). […] Homogenates are obtained from pre-ischemic/reperfused (g and i) and post-ischemic/reperfused (h and j) WT and TG hearts that are subjected to occlusion of LAD artery for 30 minutes and reperfusion for 24 hours. Homogenates are extracted by use of a solubilization solution of 7 mol/L urea, 2 mol/L thiourea, 4% CHAPS, 20 mmol/L DTT, 20 mmol/L spermine, and 1 mmol/L PMSF. Extract is centrifuged (100 000 g, 1 hour, at 10° C.), and 500 μg from each preparation is separated by 2D electrophoresis, using isoelectric focusing strips (Immobiline Drystrips, 18 cm, pH 4 to 7). […]
Association of Hsp20 with Bax and Bcl-2 is studied using Dynabeads Protein G (Dynal Biotech) according to the manufacturer's instructions. […] Finally, the proteins are eluted off (using 0.1 mol/L citrate), and their identity is determined by immunoblotting.

T1 sequence (P10417 whole entry): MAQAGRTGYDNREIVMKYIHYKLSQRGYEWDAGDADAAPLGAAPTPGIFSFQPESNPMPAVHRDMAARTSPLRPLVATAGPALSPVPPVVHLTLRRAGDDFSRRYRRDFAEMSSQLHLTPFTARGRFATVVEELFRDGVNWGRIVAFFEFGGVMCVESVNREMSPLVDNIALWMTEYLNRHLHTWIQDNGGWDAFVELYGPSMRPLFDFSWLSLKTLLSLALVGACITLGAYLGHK

B1: Heat-Shock Protein Hsp20 (other, mouse, UniProt Q5EBG6 1-162, looked up)
chain: MEIPVPVQPSWLRRASAPLPGFSAPGRLFDQRFGEGLLEAELASLCPAAIAPYYLRAPSVALPTAQVSTDSGYFSVLLDVKHFLPEEISVKVVDDHVEVHARHEERPDEHGFIAREFHRRYRLPPGVDPAAVTSALSPEGVLSIQATPASAQAQLPSPPAAK
notes: Endogenous protein from wild-type mouse heart homogenate, used in co-immunoprecipitation; also called mcHsp20
- binding result: no binding
